# B1: ONCONASE®: basic protein of 12,000 MW isolated from oocytes or early embryos of Rana pipiens, homologous to pancreatic RNase A (protein, UniProt P22069 1-104, looked up)
# Protein P-30: QDWLTFQKKHITNTRDVDCDNIMSTNLFHCKDKNTFIYSRPEPVKAICKGIIASKNVLTTSEFYLSDCNVTSRPCKYKLKKSTNKFCVTCENQAPVHFVGVGSC
# Assays:
# Assay type in all cases: cell-based, Human
# p16^INK4a = p16^INK4a expression by flow cytometry in U937 cells; settings: U937, 170 nM, 72 hours
# Protocol: Proportions of cells in different phases of the cycle were the same as in FIG. 12;
# (§1) Following incubations in the absence or presence of ONCONASE®, the cells were washed with phosphate-buffered saline (PBS) and fixed in suspension in either ice-cold 80% ethanol or absolute methanol for up to 24 h. After fixation, the cells were washed twice with PBS and then suspended in 1 ml of 0.25% Triton X-100 (Sigma, St. Louis, Mo., USA) in PBS on ice for 5 min. The cells were then centrifuged (300 g, 5 min), the cell pellet suspended 100 μl PBS containing 0.5 μg of the anti-cyclin (or anti-CKI) mAb and 1% bovine serum albumin (BSA; Sigma), and incubated for 2 h at room temperature. […]
# (§2) Cellular fluorescence was measured with the ELITE ESP flow cytometer/cell sorter (Coulter, Miami, Fla., USA) using either argon ion laser (emission at 488 nm) alone or combined with helium-cadmium laser (emitting UV light). In the first case, fluorescence signals were collected using the standard configuration of the flow cytometer (green fluorescence, representing directly or indirectly FITC-labeled antibodies; red fluorescence representing CYCHROME® tagged anti-pRB^T mAb). In the second case, DNA content was analyzed based on DAPI fluorescence (blue emission) excited by UV light, while the anti-pRB^P− mAb (FITC) and anti-pRB^T (Cy-Chrome®) related emission was excited with blue light laser.
# cyclin D3 = assay: Western blot of cyclin D3 in U937 cells; settings: U937, 48 h
# Protocol: Anti-cyclin D3 mAb immunofluorescence in combination with DNA content was measured by multiparameter flow cytometry (a). The cells were growing either in the absence (Exp, exponential growth) or in the presence of 170 nM ONCONASE® for 48 hours (Onc). There were 48%, 38% and 14% of cells in G1, S, and G2/M in Exp culture compared with 64%, 24% and 13% cells in G1, S, and G2/M, respectively, in Onc culture. The scattergrams represent bivariate distributions of the cells with respect to their cyclin D3 vs. DNA content associated fluorescence intensities. The upper level of the isotype-matched control (mean fluorescence+3 standard deviations) is marked in the Exp panel with a dashed line. The bar plots represent the mean FITC (anti-cyclin D3 mAb) fluorescence values (arbitrary units) of the cells in different phases of the cycle (gated based on differences in DNA content as shown in the Exp panel), after subtraction of the background fluorescence, i.e., mean fluorescence of the same cells but stained with isotype-matched control IgG antibody. Western blots (b) show expression of cyclin D3 in control culture and in the culture treated with Onconase 48 h;
# (§3) To reveal specificity of the antibodies that were used, a standard immunoblotting procedure was used on cellular lysates.
# underphosphorylated pRB = assay: pRB phosphorylation in U937 cells, anti-pRB^P− mAb flow cytometry; settings: U937, 170 nM
# Source text: (§4) Also shown are cells from the culture at higher cell density (>10^6 cells/ml) where proliferation declined because of cell crowding (d). The cells reacting with anti-pRB^P− were in G0/1 phase (open arrows). The dashed line indicates the upper level of background fluorescence, i.e. of the cells pretreated with alkaline phosphatase. The percentage of cells reacting with anti-pRB^P− mAb was increased in the ONCONASE®-treated and crowded cultures compared to the control. No significant changes in expression of pRB detected by the antibody that reacts with this protein regardless of its phosphorylation status (anti-pRB^T) were observed between ONCONASE®-treated and control cells (not shown).
# (§5) The status of phosphorylation of pRB in individual cells was monitored using a combination of anti-pRB antibodies, one specifically detecting underphosphorylated pRB (anti-pRb^P− mAb) and another which reacts with total pRB, regardless of its phosphorylation (anti-pRB^T mAb). […] The cells were then rinsed with PBS containing 1% BSA and their pRB associated green (anti-pRB^P−) and red (anti-PRB^T) fluorescence was measured by flow cytometry.
# (§6) Cellular fluorescence was measured with the ELITE ESP flow cytometer/cell sorter (Coulter, Miami, Fla., USA) using either argon ion laser (emission at 488 nm) alone or combined with helium-cadmium laser (emitting UV light). […]
# total pRB = assay: Total pRB in U937 cells, anti-pRB^T mAb flow cytometry
# Source text: as §4, §5, §6
# p27^KIP1 [1] = assay: p27^KIP1 expression by flow cytometry in U937 cells; settings: U937, 170 nM, 72 hours
# Protocol: as §1, §2
# p21^WAF1/CIP1 = assay: Western blot of p21^WAF1/CIP1 in U937 cells; settings: U937, 170 nM, 72 hours
# Source text: as §3
# p27^KIP1 [2] = assay: Western blot of p27^KIP1 in U937 cells; settings: U937, 17 and 170 nM, 72 h; not detected in Exp cells
# Source text: as §3
molecule,measurement,setting,value
B1,increase in level of p16^INK4a,p16^INK4a,over six-fold
same,"expression of cyclin D3, Western blot",cyclin D3,decrease in expression of cyclin D3
same,proportion of cells stainable with anti-pRB^P−,underphosphorylated pRB; 48 h (control 2.4%),40.5%
same,proportion of cells stainable with anti-pRB^P−,underphosphorylated pRB; 72 h (control 2.4%),43.3%
same,effect on total pRB (anti-pRB^T),total pRB,no effect
same,increase in p27^KIP1,p27^KIP1 [1],Over four-fold
same,"p21^WAF1/CIP1 band, Western blot",p21^WAF1/CIP1,band only in the ONCONASE®-treated cells
same,"p27^KIP1 bands, Western blot",p27^KIP1 [2],strong bands

# Reference: patent publication US7070943B2 (priority 1998, dated 2006)
